Measurements reported in the RNAGym collection of RNA variant scans (doi:10.1073/pnas.2313332121).
This sample holds only a part of the variants without activity.

B1: TPR 5TU (parent)
chain: GGAUCUUCUCGAUCUAACAAAAAAGACAAAUCUGCCACAAAGCUUGAGAGCAUCUUCGGAUGCAGAGGCGGCAGCCUUCGGUGGCGCGAUAGCGCCAACGUUCUCAACUAUGACACGCAAAACGCGUGCUCCGUUGAAUGGAGUUUAUCAUG

Variants of: B1
Experiment: polymerase ribozyme fitness, log enrichment relative to wild type (log ratio); higher = more active; in vitro selection for triplet polymerase activity
Procedure, shortened: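 One round of in vitro selection, in triplicate, was applied to PCR-built, transcribed mutant libraries of each subunit of a heterodimeric triplet polymerase ribozyme. The steps were annealing with a biotinylated primer, partner subunit and triplets, incubation frozen at −7 °C, gel excision of extended constructs, streptavidin-bead capture and RT-PCR. Fitness is the logarithm, base 2, of genotype enrichment over wild-type enrichment from inverse-variance-weighted replicate averages of Illumina-sequenced inputs and outputs, keeping genotypes with ≥10 input reads and ≥1 read per output.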

Row | Variant | polymerase ribozyme fitness (log ratio)
1 | GGAUAUUCUCGAUCCAACAAAAAAGACAAAUCUGCCACAAAGCUUGAGAGCAUCUACGGAUGCAGAGGCGGCAGCCUUCGGUGGCGCGAUAGCGCCAACGUUCUGACCUAUGACACUCAAAACGCGUGCUCCGUUGAACGGACUUUACCAUG [C5A U15C U56A C105G A107C G117U U139C G143C U148C] | ≤ -4.2
2 | GGAUCUUCUCGAUCUAACAAAAAAGACAAAUCUGCCACAAAGCUUGAGAGCAUCUUCGGAUGCAGAGGCGGCUGCCUUCGGUGGCUCGAUAGCGCCAACGUUCUCAACUAUGACACGCAAAACGCGUGCUCCGUUGAAUGGAGUUUAUCAUG [A73U G86U] | -4.19
3 | GGAUCUUCUCGAUCUAACAAAAAAGACAAAUCUGCCACAAAGCUUGAGACCAUCUUCGGAUGCAGAGGCGGCAGCCUUCGGUGGCGCGAUAGUGCCAACGUUCGCAACUAUGACACGCAAAACGCGUGCUCCGUUUAAUGAAGUUUAUCAUG [G50C C93U U104G G136U G141A] | ≤ -4.2
4 | GGAUCUUCUCGAUCUAACAAAAAAGACAAAUCUGCCACAAAGCUUGAGAGCAUCUUCGGAUGCAGAGGCGGCAGCCUUCGUUGGCGCGAUAGCGCCAACGUUCUCAACUAUGACACGCAAAACGCGUGCUCCGUUGAAUGAAGUUUAUCAUG [G81U G141A] | 0.321
5 | GGAUCUUCUCGAUCUAACAAAAAAGACAAAUCUGCCACAAAGCUUGAGAGCAUCUUCGGAUGCAGAGGCGGCAGCCUUCGGCGGCGCGAUAGCGGCAACGUUCUCAACUAUGACACGCAAAACGCGUGCUCCGUUGAAUGGAGUUUAUCAUG [U82C C95G] | -2.63
6 | GGAUCUUCUCGAUCUAACAAAAAAGACAAAUCUGCCACAAAGCUUGAGAGCAUCUUCGGAUGCAGAGGCGGCAGCCUUCGGUGGCGUGAUAGCGCGAACGUUCUCAACUAUGUCACGCAAAACGCGUGCUCCGUUGAAUGGAGUUUAUCAUG [C87U C96G A113U] | -2.85
7 | GGAUCUUCUCGAUCUAACAAGAAAGACAAAUCUGCCACAAAGCUUGAGAGCAUCUUCGGAUGCAGAGGCGGCAGCCUUCGUUGGCUCGAUAGCGCCAACGUUCUCAACUAUGACACGCAAAAAGCGUGCUCCGUUGAAUGGAGUUUAUCAUG [A21G G81U G86U C123A] | -1.08
8 | GGAUCUUCUCGAUCUAACAAAAAAGACAAAUCUGCCACAAAGCUUGAGAGCAUCUUCGGAUGCCGAGGUGGCAGCCUUCGGUGACGCGAUAGCGCCAACGUUCUCAACUAUGACACGCAAAACGCGUGCUCCGUUUAAUGUAGUUUAUCAUG [A64C C69U G84A G136U G141U] | ≤ -4.2
9 | GGAUCUUCUCGAUCUAACAAAAUAGACAAAUCUGCCACAAAGCUUGAGAGCAUCUUCGGAUGCCGAAGCGGCAGCCUUCGCUGGCGCGAUAGCGCCAACGUUCUCAACUAUGACACGCAAAACGCGUGCUCCGUUGAAUGGAGUUUAUCAUG [A23U A64C G67A G81C] | ≤ -4.2
10 | GGAUCUUCUCGAUCUAACAAAUAAGACAAAUCUGCCACAAAGCUUGAGAGCAUCUUCGGAUGCAGAGGCGGCAGCCUUCGGUGGCGCGAUAGCCGAAACGUUCUCAACUAUGACACGCAAAUCGCGUGCUCCGUUGAAUGGAGUUUAUCAUG [A22U G94C C95G C96A A122U] | ≤ -4.2
11 | GGAUCUUCUCGAUCUAACAAAAAAGACAAAUCUGCCACGAAGCUUGAGAGCAUCUUCGGAUGCAGAGGCGGCAGCCUUCGGUGGCGCGAUGGCGCCAACGUUCUCAACUAUGACACGCAAAACGCGUGCUCCGUUGGAUGGAGUUUAUCAUG [A39G A91G A137G] | ≤ -4.2
12 | GGAUCUUCUCGAUCUAACAAAAAAGACAAAUCUGCCACAAAGCUUGAGAGCAUCUUCGGAUGCAGAGGCGGCAGCCUUCGGUGGCGCGAUAGCGCCAACGUUCUCAACUAUGACGCGCAAAACACGUGCUCCGUUGAAUGGAGUUUAUCGUG [A115G G124A A150G] | -4
13 | GGAUCUUCUCGAUCUAACAAAAACGACACAUCUGCCACAAAGCUUGAGAGCAUCGUCGGAUGCAGAGGCGGCAGCCUUCGGUGGCGCGAUAGCCCCAACGUUCUCAACUAUGACACGCAAAACGCGUGCUCCGUUGAAUGGAGUUUAUCAUG [A24C A29C U55G G94C] | ≤ -4.2
14 | GGAUCUUCUCGAUCUAACAAAUAAGACAAAUGUGCCACAAAGCUUGAGAGCAUCUUCGGAUGCAGAGGCGGCAGCCUUCGGUGGCGCGAUAGCGCCAACGUUCUCAACUAUGACACGCAAAACGCGUGCUCCGCUGAAUGGAGUUUAUCAUG [A22U C32G U134C] | ≤ -4.2
15 | GGAUCUUCUCGAUCUAACAAAAAAUACAAAUCUGCCACAAAGCUUGAGAGCAUCUUCGGAUGCAGAGGCGGCAGCCUUCGGUGGCGCGUUAGCGCGAACAUCCUCAACUAUGACACGAGAAACGCGUGCUCCGUUGAAUGGAGUUUAUCAUG [G25U A89U C96G G100A U102C C118A A119G] | ≤ -4.2
16 | GGAUCUUCUCGAUCUAACAAAAAAGACAAAUCUGCCAUAAAGCUUGAGAGCAUCUUCGGAUGCAGAGGCGGCAGCCUUCGGUGGCGCGAUAGGGCCAACGUUCUCAACUAUGACACGCAAAACGCGUGCUCCGUUGAAUGGAGUUUAUCAUG [C38U C93G] | -2.92
17 | GGAUCUUCUCGAUCUAACAAAAAAGACAAAUCUGCCACAAAGCUUGAGAGCAUUUUCGGAUGCAGAGGCGGCAGCCUUCGGUGGCGUGAUAGCGCCAACGUUCUCAACUAUGACACGCAAAACGCGUGCUCCGUUGAAUGGAGUUUAUCAUG [C54U C87U] | -1.08
18 | GGAUCUUCUCGAUCUAACAAAAAAGACAAAUCUGCCACAAAGCUUGAGAGCAUCUUCGGAUGCAGAGGCGGCAGCCUUCCGUGGCGCGAUAGGGCCAACGUUCUCAACUAUGACCCGCAAAACGCGUGCUCCGUUGAAUGGAGCUUAUCAUG [G80C C93G A115C U144C] | ≤ -4.2
19 | GGAUCUUCUCGAUCAAACAAAAAAGACAAAUCUGCUACAAAGCUUGAGAGCAUCUUCGGAUGCAGAGGCGGCAGCCUUCGGUGGCGUGAUAGCGCCAACGUUCUCAACUAUGACACGCAAAACUCGUGCUCCGUUGCAUGGAGUUUAUCAUG [U15A C36U C87U G124U A137C] | -4.03
